# Test results published in patent publication EP4782466A1, “FUSION PROTEIN FOR INACTIVATING CORONAVIRUS AND USE THEREOF” (priority 2023, dated 2025).
# Tests used:
# Assay in all cases: cell-based or functional assay
# [1] = target: S protein of SARS-CoV-2 Alpha (B.1.1.7) (SARS-CoV-2 Alpha (B.1.1.7))
# [2] = target: S protein of SARS-CoV-2 Beta (B.1.351) (SARS-CoV-2 Beta (B.1.351))
# [3] = target: S protein of SARS-CoV-2 Delta (B.1.617.2) (SARS-CoV-2 Delta (B.1.617.2))
# [4] = target: S protein of SARS-CoV-2 Gamma (P.1) (SARS-CoV-2 Gamma (P.1))
# [5] = target: S protein of SARS-CoV-2 Lambda (SARS-CoV-2 Lambda)
# [6] = target: S protein of SARS-CoV-2 Omicron BA.1 (SARS-CoV-2 BA.1)
# [7] = target: S protein of SARS-CoV-2 Omicron BA.2 (SARS-CoV-2 BA.2)
# [8] = target: S protein of SARS-CoV-2 Omicron BA.2.12.1 (SARS-CoV-2 BA.2.12.1)
# [9] = target: S protein of SARS-CoV-2 Omicron BA.2.2 (SARS-CoV-2 BA.2.2)
# [10] = target: S protein of SARS-CoV-2 Omicron BA.2.75 (SARS-CoV-2 BA.2.75)
# [11] = target: S protein of SARS-CoV-2 Omicron BA.2.9 (SARS-CoV-2 BA.2.9)
# [12] = target: S protein of SARS-CoV-2 Omicron BA.3 (SARS-CoV-2 BA.3)
# [13] = target: S protein of SARS-CoV-2 Omicron BA.4.6 (SARS-CoV-2 BA.4.6)
# [14] = target: S protein of SARS-CoV-2 Omicron BA.5 (SARS-CoV-2 BA.5)
# [15] = target: S protein of SARS-CoV-2 Omicron BF.7 (SARS-CoV-2 BF.7)
# [16] = target: S protein of SARS-CoV-2 Omicron BQ.1 (SARS-CoV-2 BQ.1)
# [17] = target: S protein of SARS-CoV-2 Omicron XBB (SARS-CoV-2 XBB)
substance,measurement,setting,value
AL5E protein (ACE2-linker-EK1 fusion protein with (GGGGS)5 linker),"EC50, inactivation of pseudovirus (Caco-2, luciferase)",[1],8.72 nM
same,"Fold enhancement of AL5E over ACE2 (EC50, pseudovirus inactivation)",[1],27.9 fold
same,"Fold enhancement of AL5E over ACE2 (IC50, pseudovirus inhibition)",[1],47.7 fold
same,"IC50, inhibition of pseudovirus infection (Caco-2, luciferase)",[1],0.13 nM
same,"EC50, inactivation of pseudovirus (Caco-2, luciferase)",[2],1.57 nM
same,"Fold enhancement of AL5E over ACE2 (EC50, pseudovirus inactivation)",[2],78.4 fold
same,"Fold enhancement of AL5E over ACE2 (IC50, pseudovirus inhibition)",[2],94.5 fold
same,"IC50, inhibition of pseudovirus infection (Caco-2, luciferase)",[2],0.17 nM
same,"EC50, inactivation of pseudovirus (Caco-2, luciferase)",[3],8.21 nM
same,"Fold enhancement of AL5E over ACE2 (EC50, pseudovirus inactivation)",[3],73.7 fold
same,"Fold enhancement of AL5E over ACE2 (IC50, pseudovirus inhibition)",[3],30.3 fold
same,"IC50, inhibition of pseudovirus infection (Caco-2, luciferase)",[3],0.16 nM
same,"EC50, inactivation of pseudovirus (Caco-2, luciferase)",[4],2.7 nM
same,"Fold enhancement of AL5E over ACE2 (EC50, pseudovirus inactivation)",[4],32.8 fold
same,"Fold enhancement of AL5E over ACE2 (IC50, pseudovirus inhibition)",[4],68.5 fold
same,"IC50, inhibition of pseudovirus infection (Caco-2, luciferase)",[4],0.22 nM
same,"EC50, inactivation of pseudovirus (Caco-2, luciferase)",[5],2.75 nM
same,"Fold enhancement of AL5E over ACE2 (EC50, pseudovirus inactivation)",[5],42 fold
same,"Fold enhancement of AL5E over ACE2 (IC50, pseudovirus inhibition)",[5],427 fold
same,"IC50, inhibition of pseudovirus infection (Caco-2, luciferase)",[5],0.03 nM
same,"EC50, inactivation of pseudovirus (Caco-2, luciferase)",[6],1.29 nM
same,"Fold enhancement of AL5E over ACE2 (EC50, pseudovirus inactivation)",[6],63.7 fold
same,"Fold enhancement of AL5E over ACE2 (IC50, pseudovirus inhibition)",[6],624 fold
same,"IC50, inhibition of pseudovirus infection (Caco-2, luciferase)",[6],0.03 nM
same,"EC50, inactivation of pseudovirus (Caco-2, luciferase)",[7],3.04 nM
same,"Fold enhancement of AL5E over ACE2 (EC50, pseudovirus inactivation)",[7],108 fold
same,"Fold enhancement of AL5E over ACE2 (IC50, pseudovirus inhibition)",[7],96.8 fold
same,"IC50, inhibition of pseudovirus infection (Caco-2, luciferase)",[7],0.13 nM
same,"EC50, inactivation of pseudovirus (Caco-2, luciferase)",[8],1.94 nM
same,"Fold enhancement of AL5E over ACE2 (EC50, pseudovirus inactivation)",[8],39.2 fold
same,"Fold enhancement of AL5E over ACE2 (IC50, pseudovirus inhibition)",[8],176 fold
same,"IC50, inhibition of pseudovirus infection (Caco-2, luciferase)",[8],0.06 nM
same,"EC50, inactivation of pseudovirus (Caco-2, luciferase)",[9],3.35 nM
same,"Fold enhancement of AL5E over ACE2 (EC50, pseudovirus inactivation)",[9],142 fold
same,"Fold enhancement of AL5E over ACE2 (IC50, pseudovirus inhibition)",[9],59.3 fold
same,"Fold of AL5E over ACE2 (IC50, live BA.2.2 virus inhibition)",[9],44 fold
same,"IC50, inhibition of pseudovirus infection (Caco-2, luciferase)",[9],0.2 nM
same,"EC50, inactivation of pseudovirus (Caco-2, luciferase)",[10],1.91 nM
same,"Fold enhancement of AL5E over ACE2 (EC50, pseudovirus inactivation)",[10],354 fold
same,"Fold enhancement of AL5E over ACE2 (IC50, pseudovirus inhibition)",[10],51 fold
same,"IC50, inhibition of pseudovirus infection (Caco-2, luciferase)",[10],0.52 nM
same,"EC50, inactivation of pseudovirus (Caco-2, luciferase)",[11],8.62 nM
same,"Fold enhancement of AL5E over ACE2 (EC50, pseudovirus inactivation)",[11],47.2 fold
same,"Fold enhancement of AL5E over ACE2 (IC50, pseudovirus inhibition)",[11],95.4 fold
same,"IC50, inhibition of pseudovirus infection (Caco-2, luciferase)",[11],0.08 nM
same,"EC50, inactivation of pseudovirus (Caco-2, luciferase)",[12],2.26 nM
same,"Fold enhancement of AL5E over ACE2 (EC50, pseudovirus inactivation)",[12],23.1 fold
same,"Fold enhancement of AL5E over ACE2 (IC50, pseudovirus inhibition)",[12],32.5 fold
same,"IC50, inhibition of pseudovirus infection (Caco-2, luciferase)",[12],0.2 nM
same,"EC50, inactivation of pseudovirus (Caco-2, luciferase)",[13],2.28 nM
same,"Fold enhancement of AL5E over ACE2 (EC50, pseudovirus inactivation)",[13],508 fold
same,"Fold enhancement of AL5E over ACE2 (IC50, pseudovirus inhibition)",[13],70.8 fold
same,"IC50, inhibition of pseudovirus infection (Caco-2, luciferase)",[13],0.93 nM
same,"EC50, inactivation of pseudovirus (Caco-2, luciferase)",[14],2.27 nM
same,"Fold enhancement of AL5E over ACE2 (EC50, pseudovirus inactivation)",[14],148 fold
same,"Fold enhancement of AL5E over ACE2 (IC50, pseudovirus inhibition)",[14],382 fold
same,"IC50, inhibition of pseudovirus infection (Caco-2, luciferase)",[14],0.04 nM
same,"EC50, inactivation of pseudovirus (Caco-2, luciferase)",[15],1.99 nM
same,"Fold enhancement of AL5E over ACE2 (EC50, pseudovirus inactivation)",[15],96.3 fold
same,"Fold enhancement of AL5E over ACE2 (IC50, pseudovirus inhibition)",[15],362 fold
same,"IC50, inhibition of pseudovirus infection (Caco-2, luciferase)",[15],0.28 nM
same,"EC50, inactivation of pseudovirus (Caco-2, luciferase)",[16],3.73 nM
same,"Fold enhancement of AL5E over ACE2 (EC50, pseudovirus inactivation)",[16],40 fold
same,"Fold enhancement of AL5E over ACE2 (IC50, pseudovirus inhibition)",[16],136 fold
same,"IC50, inhibition of pseudovirus infection (Caco-2, luciferase)",[16],0.16 nM
same,"EC50, inactivation of pseudovirus (Caco-2, luciferase)",[17],4.69 nM
same,"Fold enhancement of AL5E over ACE2 (EC50, pseudovirus inactivation)",[17],45.2 fold
same,"Fold enhancement of AL5E over ACE2 (IC50, pseudovirus inhibition)",[17],74.5 fold
same,"IC50, inhibition of pseudovirus infection (Caco-2, luciferase)",[17],0.17 nM
AL6E protein (ACE2-linker-EK1 fusion protein with (GGGGS)6 linker),"IC50, inhibition of pseudovirus infection (Caco-2, luciferase)",[1],0.25 nM
same,"IC50, inhibition of pseudovirus infection (Caco-2, luciferase)",[2],0.25 nM
same,"IC50, inhibition of pseudovirus infection (Caco-2, luciferase)",[3],0.31 nM
same,"IC50, inhibition of pseudovirus infection (Caco-2, luciferase)",[4],0.28 nM
same,"IC50, inhibition of pseudovirus infection (Caco-2, luciferase)",[5],0.07 nM
same,"IC50, inhibition of pseudovirus infection (Caco-2, luciferase)",[6],0.11 nM
same,"IC50, inhibition of pseudovirus infection (Caco-2, luciferase)",[7],0.21 nM
same,"IC50, inhibition of pseudovirus infection (Caco-2, luciferase)",[8],0.17 nM
same,"IC50, inhibition of pseudovirus infection (Caco-2, luciferase)",[9],0.24 nM
same,"IC50, inhibition of pseudovirus infection (Caco-2, luciferase)",[10],1.4 nM
same,"IC50, inhibition of pseudovirus infection (Caco-2, luciferase)",[11],0.09 nM
same,"IC50, inhibition of pseudovirus infection (Caco-2, luciferase)",[12],0.27 nM
same,"IC50, inhibition of pseudovirus infection (Caco-2, luciferase)",[13],1.96 nM
same,"IC50, inhibition of pseudovirus infection (Caco-2, luciferase)",[14],0.13 nM
same,"IC50, inhibition of pseudovirus infection (Caco-2, luciferase)",[15],1.01 nM
same,"IC50, inhibition of pseudovirus infection (Caco-2, luciferase)",[16],0.86 nM
same,"IC50, inhibition of pseudovirus infection (Caco-2, luciferase)",[17],0.23 nM
AL7E protein (ACE2-linker-EK1 fusion protein with (GGGGS)7 linker),"IC50, inhibition of pseudovirus infection (Caco-2, luciferase)",[1],0.21 nM
same,"IC50, inhibition of pseudovirus infection (Caco-2, luciferase)",[2],0.24 nM
same,"IC50, inhibition of pseudovirus infection (Caco-2, luciferase)",[3],0.31 nM
same,"IC50, inhibition of pseudovirus infection (Caco-2, luciferase)",[4],0.25 nM
same,"IC50, inhibition of pseudovirus infection (Caco-2, luciferase)",[5],0.27 nM
same,"IC50, inhibition of pseudovirus infection (Caco-2, luciferase)",[6],0.14 nM
same,"IC50, inhibition of pseudovirus infection (Caco-2, luciferase)",[7],0.12 nM
same,"IC50, inhibition of pseudovirus infection (Caco-2, luciferase)",[8],0.23 nM
same,"IC50, inhibition of pseudovirus infection (Caco-2, luciferase)",[9],0.28 nM
same,"IC50, inhibition of pseudovirus infection (Caco-2, luciferase)",[10],1.04 nM
same,"IC50, inhibition of pseudovirus infection (Caco-2, luciferase)",[11],0.21 nM
same,"IC50, inhibition of pseudovirus infection (Caco-2, luciferase)",[12],0.11 nM
same,"IC50, inhibition of pseudovirus infection (Caco-2, luciferase)",[13],0.56 nM
same,"IC50, inhibition of pseudovirus infection (Caco-2, luciferase)",[14],0.31 nM
same,"IC50, inhibition of pseudovirus infection (Caco-2, luciferase)",[15],0.93 nM
same,"IC50, inhibition of pseudovirus infection (Caco-2, luciferase)",[16],1.14 nM
same,"IC50, inhibition of pseudovirus infection (Caco-2, luciferase)",[17],0.94 nM
